± gives the standard error. For some of these results: Variants at the floor of the assay were thinned out.
B1: glmS ribozyme (parent)
chain: AUAAAAGCGCCAGAACUACAGAAAUGUAGUUGACGAGGAGGAGGUUUAUCGAAUUUUCGGCGGAUGCCUCCAAA

Experiments:
Conditions in all cases: with glucosamine-6-phosphate
glucosamine-6-phosphate [1] = variants of: B1; test: kcat; higher = faster cleavage; RNA array
How it was run: (§1)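 Tiles of sequenced MiSeq chips were imaged over ~14 h at 37 °C. On them, barcoded ribozyme variants had been transcribed in situ by E. coli RNA polymerase and were tracked via a hybridised Cy3 probe while glucosamine-6-phosphate (40 μM to 10 mM) in HEPES/KCl/Mg(OAc)2 buffer flowed in. Per-tile medians, normalised to baseline and to non-cleaving reference variants, were fit to one- or two-exponential decays for kobs, and weighted Michaelis–Menten fits gave kcat and KM.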

glucosamine-6-phosphate [2] = variants of: B1; test: KM; higher = weaker cofactor use; RNA array
How it was run: as §1

glucosamine-6-phosphate [3] = variants of: B1; test: self-cleavage kobs at 40 uM GlcN6P; higher = faster cleavage; RNA array
How it was run: as §1

glucosamine-6-phosphate [4] = variants of: B1; test: self-cleavage kobs at 160 uM GlcN6P; higher = faster cleavage; RNA array
How it was run: as §1

glucosamine-6-phosphate [5] = variants of: B1; test: self-cleavage kobs at 10000 uM GlcN6P; higher = faster cleavage; RNA array
How it was run: as §1

glucosamine-6-phosphate [6] = variants of: B1; test: self-cleavage kobs at 640 uM GlcN6P; higher = faster cleavage; RNA array
How it was run: as §1

glucosamine-6-phosphate [7] = variants of: B1; test: self-cleavage kobs at 2500 uM GlcN6P; higher = faster cleavage; RNA array
How it was run: as §1

Row | Variant | kcat (glucosamine-6-phosphate [1]) | KM (glucosamine-6-phosphate [2]) | self-cleavage kobs at 40 uM GlcN6P (glucosamine-6-phosphate [3]) | self-cleavage kobs at 160 uM GlcN6P (glucosamine-6-phosphate [4]) | self-cleavage kobs at 10000 uM GlcN6P (glucosamine-6-phosphate [5]) | self-cleavage kobs at 640 uM GlcN6P (glucosamine-6-phosphate [6]) | self-cleavage kobs at 2500 uM GlcN6P (glucosamine-6-phosphate [7])
1 | U30A A33U | 5.67e-05 ± 3.2e-06 s⁻¹ | 4.01 ± 0.66 mM | < 1e-05 s⁻¹ | < 1e-05 s⁻¹ | 4.04e-05 ± 8.7e-06 s⁻¹ |  | 
2 | U31A A48C | 0.000149 ± 3.3e-05 s⁻¹ |  |  |  | 0.00014 ± 2.4e-05 s⁻¹ | 4.87e-05 ± 1.3e-05 s⁻¹ | 7.42e-05 ± 1.5e-05 s⁻¹
3 | U31A A48G | 2.21e-05 ± 4.8e-06 s⁻¹ |  |  |  | 1.74e-05 ± 7.5e-06 s⁻¹ |  | 3.3e-05 ± 1.1e-05 s⁻¹
4 | G29C C58U | 5.79e-05 ± 8.3e-06 s⁻¹ |  | < 1e-05 s⁻¹ |  | 4.86e-05 ± 8e-06 s⁻¹ |  | 2.68e-05 ± 9.9e-06 s⁻¹
5 | U31A A39C | 0.00192 ± 0.00067 s⁻¹ | 2.12 ± 1 mM | 5.43e-05 ± 7.8e-06 s⁻¹ | 0.000105 ± 1.4e-05 s⁻¹ | 0.00166 ± 0.0003 s⁻¹ | 0.000525 ± 4.9e-05 s⁻¹ | 0.000973 ± 0.00011 s⁻¹
6 | U30G A52G | 0.000498 ± 6.7e-05 s⁻¹ | 2.43 ± 0.62 mM |  | 4.03e-05 ± 2e-05 s⁻¹ | 0.000388 ± 4.4e-05 s⁻¹ | 9.63e-05 ± 1.4e-05 s⁻¹ | 0.00033 ± 5.9e-05 s⁻¹
7 | U30G A52U | 6.83e-05 ± 9.4e-06 s⁻¹ |  |  |  | 5.6e-05 ± 1e-05 s⁻¹ |  | 4.14e-05 ± 1.5e-05 s⁻¹
8 | U30A C70G | 8.36e-05 ± 9.7e-06 s⁻¹ |  |  | 6.81e-05 ± 1.8e-05 s⁻¹ | 8.03e-05 ± 1.3e-05 s⁻¹ | 6.45e-05 ± 1.5e-05 s⁻¹ | 0.000108 ± 2.6e-05 s⁻¹
9 | U30C U65A | 2.91e-05 ± 1.2e-05 s⁻¹ |  |  |  |  |  | 3.76e-05 ± 1.2e-05 s⁻¹
10 | G29U U54C | 0.00486 ± 0.0013 s⁻¹ | 1.54 ± 0.59 mM | 0.000157 ± 3.1e-05 s⁻¹ | 0.000421 ± 6.8e-05 s⁻¹ | 0.00596 ± 0.0013 s⁻¹ | 0.00146 ± 0.00023 s⁻¹ | 0.00249 ± 0.00049 s⁻¹
11 | G29U U54A | 0.00792 ± 0.0027 s⁻¹ | 2.36 ± 1.1 mM | 0.000181 ± 1.9e-05 s⁻¹ | 0.000284 ± 7.7e-05 s⁻¹ | 0.0068 ± 0.00083 s⁻¹ | 0.00184 ± 0.0003 s⁻¹ | 0.00361 ± 0.0006 s⁻¹
12 | U30G G59U | 1.09e-05 ± 1.8e-06 s⁻¹ |  | < 1e-05 s⁻¹ |  |  |  | 
13 | U31A A53U | 0.02 ± 0.007 s⁻¹ | 3.76 ± 1.7 mM | 0.000232 ± 3.6e-05 s⁻¹ | 0.000911 ± 0.00027 s⁻¹ | 0.0181 ± 0.0034 s⁻¹ | 0.00278 ± 0.00064 s⁻¹ | 0.00529 ± 0.0016 s⁻¹
14 | G29C C68G | 2.94e-05 ± 9e-06 s⁻¹ |  |  |  |  | 5.49e-05 ± 1.9e-05 s⁻¹ | 3.19e-05 ± 1.5e-05 s⁻¹
15 | U30C U54A | 0.000514 ± 7.7e-05 s⁻¹ | 3.79 ± 1.1 mM |  |  | 0.000378 ± 5.6e-05 s⁻¹ | 8.25e-05 ± 2.1e-05 s⁻¹ | 0.000182 ± 5.3e-05 s⁻¹
16 | G29C U56G | 0.00345 ± 0.0011 s⁻¹ | 6.77 ± 2.6 mM |  | 7.08e-05 ± 1.4e-05 s⁻¹ | 0.00181 ± 0.00049 s⁻¹ | 0.000321 ± 6e-05 s⁻¹ | 0.00115 ± 0.00022 s⁻¹

Row | Variant | kcat (glucosamine-6-phosphate [1]) | KM (glucosamine-6-phosphate [2]) | self-cleavage kobs at 40 uM GlcN6P (glucosamine-6-phosphate [3]) | self-cleavage kobs at 160 uM GlcN6P (glucosamine-6-phosphate [4]) | self-cleavage kobs at 10000 uM GlcN6P (glucosamine-6-phosphate [5]) | self-cleavage kobs at 640 uM GlcN6P (glucosamine-6-phosphate [6]) | self-cleavage kobs at 2500 uM GlcN6P (glucosamine-6-phosphate [7])
17 | G29U C50A G66U | 1.4e-05 ± 4.4e-06 s⁻¹ |  |  |  |  |  | 
18 | U30C U46G | 3.27e-05 ± 2.8e-06 s⁻¹ | 5.04 ± 1 mM |  |  |  |  | 
19 | U30A A53G | 0.00645 ± 0.0027 s⁻¹ |  | 0.000256 ± 5.1e-05 s⁻¹ | 0.000553 ± 0.00023 s⁻¹ | 0.00929 ± 0.002 s⁻¹ | 0.00196 ± 0.00055 s⁻¹ | 0.00301 ± 0.00096 s⁻¹
20 | U30A A53U | 0.00525 ± 0.00098 s⁻¹ | 1.86 ± 0.48 mM | 0.000128 ± 1.8e-05 s⁻¹ | 0.00035 ± 7.7e-05 s⁻¹ | 0.00523 ± 0.001 s⁻¹ | 0.00135 ± 0.00021 s⁻¹ | 0.00272 ± 0.00042 s⁻¹
21 | U30G G66C | 0.000132 ± 1.5e-05 s⁻¹ | 1.62 ± 0.6 mM |  |  | 0.00011 ± 1.6e-05 s⁻¹ |  | 9.1e-05 ± 1.7e-05 s⁻¹
22 | U30G G66U | 0.000295 ± 2e-05 s⁻¹ | 1.76 ± 0.29 mM |  |  | 0.000256 ± 2.4e-05 s⁻¹ | 8.02e-05 ± 1.2e-05 s⁻¹ | 0.000147 ± 3.5e-05 s⁻¹
23 | U30C C70A | 5.42e-05 ± 6.4e-06 s⁻¹ |  |  | 5.93e-05 ± 2.3e-05 s⁻¹ | 4.43e-05 ± 1.5e-05 s⁻¹ | 7.04e-05 ± 2.5e-05 s⁻¹ | 5.57e-05 ± 1.8e-05 s⁻¹
24 | U30G G32A | 0.00542 ± 0.0022 s⁻¹ | 4.72 ± 2.3 mM | 5.91e-05 ± 1.1e-05 s⁻¹ | 0.00017 ± 2.3e-05 s⁻¹ | 0.00438 ± 0.00065 s⁻¹ | 0.000709 ± 9.2e-05 s⁻¹ | 0.00123 ± 0.0003 s⁻¹
25 | G29U G41C | 4.75e-05 ± 1.3e-05 s⁻¹ |  |  |  | 3.1e-05 ± 9e-06 s⁻¹ |  | 
26 | U30A A52U | 0.000132 ± 2.2e-05 s⁻¹ | 4.38 ± 1.9 mM | < 1e-05 s⁻¹ |  | 9.26e-05 ± 1.4e-05 s⁻¹ |  | 4.37e-05 ± 1.6e-05 s⁻¹
27 | U31A G44U | 0.00017 ± 9.6e-06 s⁻¹ | 3.96 ± 0.53 mM |  |  | 0.000122 ± 1.8e-05 s⁻¹ |  | 6.38e-05 ± 1.6e-05 s⁻¹
28 | U30A G38A | < 1e-05 s⁻¹ |  | < 1e-05 s⁻¹ |  | < 1e-05 s⁻¹ |  | 
29 | U30C U55G | 0.00036 ± 1.6e-05 s⁻¹ | 1.48 ± 0.16 mM |  |  | 0.000307 ± 5.8e-05 s⁻¹ | 0.000105 ± 2.8e-05 s⁻¹ | 0.000236 ± 4.5e-05 s⁻¹
30 | U31A G41A | 0.000876 ± 0.00042 s⁻¹ |  |  | 8.73e-05 ± 1.5e-05 s⁻¹ | 0.000647 ± 0.00014 s⁻¹ | 0.000163 ± 3.6e-05 s⁻¹ | 0.00078 ± 0.00012 s⁻¹
31 | U31A C71A | 0.00261 ± 0.001 s⁻¹ |  | 8.13e-05 ± 2.1e-05 s⁻¹ | 0.000449 ± 0.00013 s⁻¹ | 0.00252 ± 0.00057 s⁻¹ | 0.00049 ± 0.00015 s⁻¹ | 0.00162 ± 0.00035 s⁻¹
32 | U30G C68U | 0.00118 ± 0.00027 s⁻¹ | 3.82 ± 1.5 mM |  |  | 0.000827 ± 0.00013 s⁻¹ | 0.000154 ± 3.1e-05 s⁻¹ | 0.000642 ± 0.00015 s⁻¹
